T1: recombinant human APRIL (human, UniProt O75888 105-250, limits assumed)
T1 sequence (looked up): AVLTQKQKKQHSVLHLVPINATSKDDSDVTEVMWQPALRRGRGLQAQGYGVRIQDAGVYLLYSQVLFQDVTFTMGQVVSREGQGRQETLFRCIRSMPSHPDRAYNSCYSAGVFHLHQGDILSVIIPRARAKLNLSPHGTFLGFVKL

T2: human CD86 (human, UniProt P42081 24-329)
T2 sequence (looked up): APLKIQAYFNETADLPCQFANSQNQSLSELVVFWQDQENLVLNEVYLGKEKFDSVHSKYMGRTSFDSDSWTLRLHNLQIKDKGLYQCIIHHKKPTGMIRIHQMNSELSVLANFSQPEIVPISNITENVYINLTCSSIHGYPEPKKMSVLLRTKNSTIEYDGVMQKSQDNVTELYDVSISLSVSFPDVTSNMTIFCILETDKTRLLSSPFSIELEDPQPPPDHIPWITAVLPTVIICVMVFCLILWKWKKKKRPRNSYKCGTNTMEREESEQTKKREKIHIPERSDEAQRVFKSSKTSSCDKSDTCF

T3: human CD80 (human, UniProt P33681 35-288)
T3 sequence (looked up): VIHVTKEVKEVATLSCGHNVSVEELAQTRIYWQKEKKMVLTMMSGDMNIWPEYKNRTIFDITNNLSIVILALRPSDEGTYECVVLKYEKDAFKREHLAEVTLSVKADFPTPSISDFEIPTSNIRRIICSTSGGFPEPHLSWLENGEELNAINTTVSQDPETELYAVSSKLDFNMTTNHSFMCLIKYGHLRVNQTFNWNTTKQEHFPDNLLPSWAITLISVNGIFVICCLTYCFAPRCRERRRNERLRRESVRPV

B1: CTLA-4 92 GSG4S Fc (G4S)2 BCMA 357 (Fc fusion)
chain: KAMHVAQPAVVLASSRGIASFVCEYASPWKATEVRVTVLRQADSQVTEVCAATYMMGSELTFPDDSICTGTSSGNQVNLTIRGLRAMDTGLYICKVEQMYPPPYLLGIGNGTQIYVIDPEPCPDSDGSGGGGSEPKSSDKTHTCPPCPAPEAEGAPSVFLFPPKPKDTLMISRTPEVTCVVVDVSHEDPEVKFNWYVDGVEVHNAKTKPREEQYNSTYRVVSVLTVLHQDWLNGKEYKCKVSNKALPAPIEKTISKAKGQPREPQVYTLPPSRDELTKNQVSLTCLVKGFYPSDIAVEWESNGQPENNYKTTPPVLDSDGSFFLYSKLTVDKSRWQQGNVFSCSVMHEALHNHYTQKSLSLSPGGGGGSGGGGSLQMAGQCSQNEYFDSLLYACIPCQLRCSSNTPPLTCQRYCNASVTNSVKGTNA
B2: BCMA 357 GSG4S Fc (G4S)3 CTLA-4 92 (Fc fusion)
chain: LQMAGQCSQNEYFDSLLYACIPCQLRCSSNTPPLTCQRYCNASVTNSVKGTNAGSGGGGSEPKSSDKTHTCPPCPAPEAEGAPSVFLFPPKPKDTLMISRTPEVTCVVVDVSHEDPEVKFNWYVDGVEVHNAKTKPREEQYNSTYRVVSVLTVLHQDWLNGKEYKCKVSNKALPAPIEKTISKAKGQPREPQVYTLPPSRDELTKNQVSLTCLVKGFYPSDIAVEWESNGQPENNYKTTPPVLDSDGSFFLYSKLTVDKSRWQQGNVFSCSVMHEALHNHYTQKSLSLSPGGGGGSGGGGSGGGGSGGGGSKAMHVAQPAVVLASSRGIASFVCEYASPWKATEVRVTVLRQADSQVTEVCAATYMMGSELTFPDDSICTGTSSGNQVNLTIRGLRAMDTGLYICKVEQMYPPPYLLGIGNGTQIYVIDPEPCPDSD
B3: BCMA 357 (G4S)3 CTLA-4 92 GSG4S Fc (Fc fusion)
chain: LQMAGQCSQNEYFDSLLYACIPCQLRCSSNTPPLTCQRYCNASVTNSVKGTNAGGGGSGGGGSGGGGSGGGGSKAMHVAQPAVVLASSRGIASFVCEYASPWKATEVRVTVLRQADSQVTEVCAATYMMGSELTFPDDSICTGTSSGNQVNLTIRGLRAMDTGLYICKVEQMYPPPYLLGIGNGTQIYVIDPEPCPDSDGSGGGGSEPKSSDKTHTCPPCPAPEAEGAPSVFLFPPKPKDTLMISRTPEVTCVVVDVSHEDPEVKFNWYVDGVEVHNAKTKPREEQYNSTYRVVSVLTVLHQDWLNGKEYKCKVSNKALPAPIEKTISKAKGQPREPQVYTLPPSRDELTKNQVSLTCLVKGFYPSDIAVEWESNGQPENNYKTTPPVLDSDGSFFLYSKLTVDKSRWQQGNVFSCSVMHEALHNHYTQKSLSLSPG
B4: CTLA-4 92 (G4S)4 BCMA 357 GSG4S Fc (Fc fusion)
chain: KAMHVAQPAVVLASSRGIASFVCEYASPWKATEVRVTVLRQADSQVTEVCAATYMMGSELTFPDDSICTGTSSGNQVNLTIRGLRAMDTGLYICKVEQMYPPPYLLGIGNGTQIYVIDPEPCPDSDGGGGSGGGGSGGGGSGGGGSLQMAGQCSQNEYFDSLLYACIPCQLRCSSNTPPLTCQRYCNASVTNSVKGTNAGSGGGGSEPKSSDKTHTCPPCPAPEAEGAPSVFLFPPKPKDTLMISRTPEVTCVVVDVSHEDPEVKFNWYVDGVEVHNAKTKPREEQYNSTYRVVSVLTVLHQDWLNGKEYKCKVSNKALPAPIEKTISKAKGQPREPQVYTLPPSRDELTKNQVSLTCLVKGFYPSDIAVEWESNGQPENNYKTTPPVLDSDGSFFLYSKLTVDKSRWQQGNVFSCSVMHEALHNHYTQKSLSLSPG
B5: CTLA-4 186GSG4S-Fc-(G4S)4-BCMA 381 (Fc fusion)
chain: KAMHVAQPAVVLASSRGIASFVCEYASPWKATEVRVTVLRQADSQVTEVCAATYMMGNELTFLDDSICTGTSSGNQVNLTIQGLRAMDTGLYICKVEQMYPPPYLLGIGNGTQIYVIDPEPCPDSDGSGGGGSEPKSSDKTHTCPPCPAPEAEGAPSVFLFPPKPKDTLMISRTPEVTCVVVDVSHEDPEVKFNWYVDGVEVHNAKTKPREEQYNSTYRVVSVLTVLHQDWLNGKEYKCKVSNKALPAPIEKTISKAKGQPREPQVYTLPPSRDELTKNQVSLTCLVKGFYPSDIAVEWESNGQPENNYKTTPPVLDSDGSFFLYSKLTVDKSRWQQGNVFSCSVMHEALHNHYTQKSLSLSPGGGGGSGGGGSGGGGSGGGGSLQMAGQCSQNEYFDALLYACIPCQLRCSSNTPPLTCQQYCNASVTNSVKGTNA
B6: CTLA-4 186GSG4S-Fc-(G4S)4-BCMA 405 (Fc fusion)
chain: B5 chain with A399S, Y402K, Q422R
B7: CTLA-4 186GSG4S-Fc-(G4S)4-BCMA 411 (Fc fusion)
chain: B5 chain with A399S, Y402R, Q422R
B8: CTLA-4 92 GSG4S Fc (G4S)3 BCMA 357 (Fc fusion)
chain: KAMHVAQPAVVLASSRGIASFVCEYASPWKATEVRVTVLRQADSQVTEVCAATYMMGSELTFPDDSICTGTSSGNQVNLTIRGLRAMDTGLYICKVEQMYPPPYLLGIGNGTQIYVIDPEPCPDSDGSGGGGSEPKSSDKTHTCPPCPAPEAEGAPSVFLFPPKPKDTLMISRTPEVTCVVVDVSHEDPEVKFNWYVDGVEVHNAKTKPREEQYNSTYRVVSVLTVLHQDWLNGKEYKCKVSNKALPAPIEKTISKAKGQPREPQVYTLPPSRDELTKNQVSLTCLVKGFYPSDIAVEWESNGQPENNYKTTPPVLDSDGSFFLYSKLTVDKSRWQQGNVFSCSVMHEALHNHYTQKSLSLSPGGGGGSGGGGSGGGGSLQMAGQCSQNEYFDSLLYACIPCQLRCSSNTPPLTCQRYCNASVTNSVKGTNA
B9: TACI 542 GSG4S Fc (G4S)4 (CTLA-4 186) (Fc fusion)
chain: SLSCRKEEGKFYDHLLQDCISCASICGQHPKQCAYFCENKLRSGSGGGGSEPKSSDKTHTCPPCPAPEAEGAPSVFLFPPKPKDTLMISRTPEVTCVVVDVSHEDPEVKFNWYVDGVEVHNAKTKPREEQYNSTYRVVSVLTVLHQDWLNGKEYKCKVSNKALPAPIEKTISKAKGQPREPQVYTLPPSRDELTKNQVSLTCLVKGFYPSDIAVEWESNGQPENNYKTTPPVLDSDGSFFLYSKLTVDKSRWQQGNVFSCSVMHEALHNHYTQKSLSLSPGGGGGSGGGGSGGGGSGGGGSKAMHVAQPAVVLASSRGIASFVCEYASPWKATEVRVTVLRQADSQVTEVCAATYMMGNELTFLDDSICTGTSSGNQVNLTIQGLRAMDTGLYICKVEQMYPPPYLLGIGNGTQIYVIDPEPCPDSD
B10: CTLA-4 92 GSG4S Fc (G4S)5 BCMA 357 (Fc fusion)
chain: KAMHVAQPAVVLASSRGIASFVCEYASPWKATEVRVTVLRQADSQVTEVCAATYMMGSELTFPDDSICTGTSSGNQVNLTIRGLRAMDTGLYICKVEQMYPPPYLLGIGNGTQIYVIDPEPCPDSDGSGGGGSEPKSSDKTHTCPPCPAPEAEGAPSVFLFPPKPKDTLMISRTPEVTCVVVDVSHEDPEVKFNWYVDGVEVHNAKTKPREEQYNSTYRVVSVLTVLHQDWLNGKEYKCKVSNKALPAPIEKTISKAKGQPREPQVYTLPPSRDELTKNQVSLTCLVKGFYPSDIAVEWESNGQPENNYKTTPPVLDSDGSFFLYSKLTVDKSRWQQGNVFSCSVMHEALHNHYTQKSLSLSPGGGGGSGGGGSGGGGSGGGGSGGGGSLQMAGQCSQNEYFDSLLYACIPCQLRCSSNTPPLTCQRYCNASVTNSVKGTNA

Substitutions are numbered along the chain they refer to. Numbers in names are those of the source.

One assay concerns the target T1, recombinant human APRIL. The assay can be described thus: cell-based or functional assay.
On to B1, for which the “IC50 (nM) APRIL” value came out at 0.683 nM and the “IC50 APRIL (Δ Parental vTD)” value was found to be 1 ratio.
Take B2: the “IC50 (nM) APRIL” value is 0.582 nM and the “IC50 APRIL (Δ Parental vTD)” value worked out at 0.6 ratio.
The like results for B3 were, in that order, 0.689 nM and 0.7 ratio.
Regarding B4, the “IC50 (nM) APRIL” value was 0.63 nM and the “IC50 APRIL (Δ Parental vTD)” value amounted to 0.6 ratio.
Regarding B5, the “IC50 (nM) APRIL” value came out at 1.27 nM.
The same measure, in the same setting: the value for B6 was 18.4 nM; that for B7 was 2.37 nM.
B8: the “IC50 (nM) APRIL” value was 0.55 nM and the “IC50 APRIL (Δ Parental vTD)” value is 0.5 ratio.
Take B9: the “IC50 (nM) APRIL” value stood at 1.2 nM.
For the molecule B10, the “IC50 (nM) APRIL” value is 0.687 nM and the “IC50 APRIL (Δ Parental vTD)” value is 0.7 ratio.

A further assay addresses recombinant human BAFF (human, UniProt Q9Y275 134-285). The assay can be described thus: cell-based or functional assay.
B1: the “IC50 (nM) BAFF” value worked out at 6.27 nM and the “IC50 BAFF (Δ Parental vTD)” value came to 1.2 ratio.
As to B2, the “IC50 (nM) BAFF” value amounted to 0.415 nM and the “IC50 BAFF (Δ Parental vTD)” value was 0.4 ratio.
Regarding B3, the “IC50 (nM) BAFF” value came out at 0.396 nM and the “IC50 BAFF (Δ Parental vTD)” value is 0.4 ratio.
For B4 the same measures were 3.75 nM and 3.8 ratio.
Take B5: the “IC50 (nM) BAFF” value came out at 0.282 nM.
On the same count and under the same terms, the value for B6 was 0.16 nM.
Same read-out and setting: the value for B7 was 0.133 nM.
Regarding B8, the “IC50 (nM) BAFF” value stood at 0.548 nM and the “IC50 BAFF (Δ Parental vTD)” value turned out to be 0.6 ratio.
For B9, the “IC50 (nM) BAFF” value came to 0.179 nM.
In the case of B10, the “IC50 (nM) BAFF” value stood at 0.765 nM and the “IC50 BAFF (Δ Parental vTD)” value came out at 0.8 ratio.

In another assay the target is T2, human CD86. The assay can be described thus: cell-based or functional assay.
On to B1, for which the “CD86 IC50” value was determined as 16.1 nM.
With B5, the “CD86 IC50” value is 11.9 nM and the “CD86 IC50 (Δ Parental CTLA-4)” value was 1.5 ratio.
Regarding B6, the “CD86 IC50” value came out at 10.8 nM and the “CD86 IC50 (Δ Parental CTLA-4)” value amounted to 1.3 ratio.
For B7 the same measures were 9 nM and 1.1 ratio.

Another assay addresses T3, human CD80. Description: cell-based or functional assay.
In the case of B1, the “CD80 IC50” value was 22.7 nM.
Take B5: the “CD80 IC50” value turned out to be 26.1 nM and the “CD80 IC50 (Δ Parental CTLA-4)” value is 0.8 ratio.
Regarding B6, the “CD80 IC50” value is 70.1 nM and the “CD80 IC50 (Δ Parental CTLA-4)” value is 2.1 ratio.
For B7 the same measures were 32.7 nM and 1 ratio.

The values are drawn from US20230241168A1 (ALPINE IMMUNE SCIENCES, published 2023).
